The source of these data is PMC9482650, “Quantitative fragmentomics allow affinity mapping of interactomes” (Nature Communications, 2022).

B1: RASL11B, Q9BPW5 (peptide)
chain: SAKVRTVTSV
B2: TRPV3, Q8NET8 (peptide)
chain: EVEEFPETSV

Chain of NOS1, P29475 (P29475 9-101): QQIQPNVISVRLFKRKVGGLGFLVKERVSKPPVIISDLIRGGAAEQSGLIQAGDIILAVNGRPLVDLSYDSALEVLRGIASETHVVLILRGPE
Chain of HTRA1, Q92743 (Q92743 360-477): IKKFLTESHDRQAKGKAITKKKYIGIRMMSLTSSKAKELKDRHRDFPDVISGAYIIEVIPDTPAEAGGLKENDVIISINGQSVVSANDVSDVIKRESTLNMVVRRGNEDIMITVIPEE
Chain of DLG1_2, Q12959 (Q12959 314-412): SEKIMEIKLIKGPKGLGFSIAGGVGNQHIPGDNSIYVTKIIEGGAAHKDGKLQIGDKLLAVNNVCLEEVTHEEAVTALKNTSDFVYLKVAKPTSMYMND
Chain of MAST1, Q9Y2H9 (Q9Y2H9 962-1065): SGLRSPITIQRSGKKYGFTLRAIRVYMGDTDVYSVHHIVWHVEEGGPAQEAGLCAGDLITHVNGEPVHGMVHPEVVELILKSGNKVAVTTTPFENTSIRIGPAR

The first test deals with T1, APBA2_2, Q99767.
T1 sequence (Q99767 654-744, limits assumed, looked up): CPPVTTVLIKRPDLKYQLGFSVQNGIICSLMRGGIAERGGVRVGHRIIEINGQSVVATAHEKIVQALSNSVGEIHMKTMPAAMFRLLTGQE
The test can be described thus: holdup assay. Also on record: key: below the threshold = too weak to quantify, mostly under pKd 3.1 to 4. The settings on record: plain residues with an end cap or a label only (N-terminal biotin on a linker: ado-ado).
What is called pKd is −log10 of the Kd, conventionally taken in molar units. Take B1: the negative-log Kd (pKd) result is “below the threshold”.
On the same count and under the same terms, the value for B2 was “below the threshold”.

A further test deals with T2, ARHGAP21, Q5T5U3.
T2 sequence (Q5T5U3 45-169, limits assumed, looked up): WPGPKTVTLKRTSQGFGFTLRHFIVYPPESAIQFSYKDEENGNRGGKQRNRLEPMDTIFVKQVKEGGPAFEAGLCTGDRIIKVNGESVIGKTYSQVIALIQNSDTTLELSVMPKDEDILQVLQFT
The test can be described thus: holdup assay. More on the design: key: below the threshold = too weak to quantify, mostly under pKd 3.1 to 4. To be noted: plain residues with an end cap or a label only (N-terminal biotin on a linker: ado-ado).
On to B1, for which the negative-log Kd (pKd) entry is recorded as “below the threshold”.
With B2, the negative logarithm of the Kd (pKd) came to 4.15.

Another test concerns the target T3, DFNB31_2, Q9P202.
T3 sequence (Q9P202 274-371, limits assumed, looked up): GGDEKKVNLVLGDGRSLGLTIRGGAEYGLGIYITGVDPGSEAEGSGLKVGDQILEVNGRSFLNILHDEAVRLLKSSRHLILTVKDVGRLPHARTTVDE
The test can be described thus: holdup assay. More on the design: key: below the threshold = too weak to quantify, mostly under pKd 3.1 to 4. The settings on record: plain residues with an end cap or a label only (N-terminal biotin on a linker: ado-ado).
For the molecule B1, the negative logarithm of the Kd (pKd) entry is given as “below the threshold”.
On the same count and under the same terms, then B2, with 3.5.

Another test concerns the target DLG1_2, Q12959. The test can be described thus: holdup assay. Also on record: key: below the threshold = too weak to quantify, mostly under pKd 3.1 to 4. To be noted: plain residues with an end cap or a label only (N-terminal biotin on a linker: ado-ado).
In the case of B1, the negative-log Kd (pKd) was determined as 5.21.
The same measure, in the same setting: the value for B2 was 4.51.

A further test has as its target DLG2_2, Q15700. The test can be described thus: holdup assay. Also on record: key: below the threshold = too weak to quantify, mostly under pKd 3.1 to 4. To be noted: plain residues with an end cap or a label only (N-terminal biotin on a linker: ado-ado).
Turning to B1, the pKd amounted to 4.79.
In the case of B2, the negative logarithm of the Kd (pKd) was determined as 4.2.

The next test deals with DLG2_3, Q15700. The test can be described thus: holdup assay. Also on record: key: below the threshold = too weak to quantify, mostly under pKd 3.1 to 4. The settings on record: plain residues with an end cap or a label only (N-terminal biotin on a linker: ado-ado).
In turn, B1 showed a pKd of 5.
Take B2: the pKd was 4.41.

The next test deals with T4, DLG3_1, Q92796.
T4 sequence (Q92796 125-227, limits assumed, looked up): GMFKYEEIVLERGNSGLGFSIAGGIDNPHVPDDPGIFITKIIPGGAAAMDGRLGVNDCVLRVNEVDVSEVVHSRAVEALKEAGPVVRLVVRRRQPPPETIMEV
Description: holdup assay. More on the design: key: below the threshold = too weak to quantify, mostly under pKd 3.1 to 4. To be noted: plain residues with an end cap or a label only (N-terminal biotin on a linker: ado-ado).
In the case of B1, the pKd stood at 3.84.
The same measure, in the same setting: the value for B2 was 3.87.

A further test concerns the target HTRA1, Q92743. Description: holdup assay. Also on record: key: below the threshold = too weak to quantify, mostly under pKd 3.1 to 4. To be noted: plain residues with an end cap or a label only (N-terminal biotin on a linker: ado-ado).
With B1, the negative logarithm of the Kd (pKd) was 3.95.
On the same count and under the same terms, the value for B2 was 4.16.

For a further test, the target named is IL16_3, Q14005. Description: holdup assay. To be noted: plain residues with an end cap or a label only (N-terminal biotin on a linker: ado-ado). Also on record: key: below the threshold = too weak to quantify, mostly under pKd 3.1 to 4.
Chain of IL16_3, Q14005 (Q14005 1107-1207): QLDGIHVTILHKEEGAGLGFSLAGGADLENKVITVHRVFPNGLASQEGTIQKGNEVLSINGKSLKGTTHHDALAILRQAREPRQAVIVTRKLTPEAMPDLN
For the molecule B1, the negative-log Kd (pKd) result is listed as “below the threshold”.
Same read-out and setting: the value for B2 was “below the threshold”.

The next test deals with T5, LIN7A, O14910.
T5 sequence (O14910 103-200, limits assumed, looked up): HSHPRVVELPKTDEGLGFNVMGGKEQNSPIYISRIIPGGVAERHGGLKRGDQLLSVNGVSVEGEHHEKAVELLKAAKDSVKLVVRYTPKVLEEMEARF
Description: holdup assay. Also on record: key: below the threshold = too weak to quantify, mostly under pKd 3.1 to 4. To be noted: plain residues with an end cap or a label only (N-terminal biotin on a linker: ado-ado).
For B1, the pKd entry is reported as “below the threshold”.
Molecule B2 gave a negative-log Kd (pKd) of 4.15.

The target in another test is T6, LRRC7, Q96NW7.
T6 sequence (Q96NW7 1440-1537, limits assumed, looked up): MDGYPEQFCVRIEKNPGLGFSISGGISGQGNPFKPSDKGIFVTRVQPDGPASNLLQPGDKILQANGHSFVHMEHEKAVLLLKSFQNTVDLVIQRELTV
The test can be described thus: holdup assay. The settings on record: plain residues with an end cap or a label only (N-terminal biotin on a linker: ado-ado). More on the design: key: below the threshold = too weak to quantify, mostly under pKd 3.1 to 4.
With B1, the negative-log Kd (pKd) result is on record as “below the threshold”.
The same measure, in the same setting: the value for B2 was 4.08.

Another test deals with MAGI2_5, Q86UL8. The test can be described thus: holdup assay. Also on record: key: below the threshold = too weak to quantify, mostly under pKd 3.1 to 4. The settings on record: plain residues with an end cap or a label only (N-terminal biotin on a linker: ado-ado).
Chain of MAGI2_5, Q86UL8 (Q86UL8 915-1017): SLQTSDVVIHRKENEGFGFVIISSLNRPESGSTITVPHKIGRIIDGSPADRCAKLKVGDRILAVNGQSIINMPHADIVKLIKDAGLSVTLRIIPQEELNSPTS
Consider B1, for which the pKd entry was “below the threshold”.
On the same count and under the same terms, the value for B2 was 3.82.

The next test concerns the target MAST1, Q9Y2H9. The test can be described thus: holdup assay. The settings on record: plain residues with an end cap or a label only (N-terminal biotin on a linker: ado-ado). More on the design: key: below the threshold = too weak to quantify, mostly under pKd 3.1 to 4.
Turning to B1, the pKd is 4.77.
Still for that read-out and setting: then B2, with 4.21.

The next test addresses T7, MPDZ_10, O75970.
T7 sequence (O75970 1624-1722, limits assumed, looked up): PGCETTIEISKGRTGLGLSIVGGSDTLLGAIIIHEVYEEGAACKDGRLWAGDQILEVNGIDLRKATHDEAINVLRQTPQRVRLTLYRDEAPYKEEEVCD
Description: holdup assay. More on the design: key: below the threshold = too weak to quantify, mostly under pKd 3.1 to 4. To be noted: plain residues with an end cap or a label only (N-terminal biotin on a linker: ado-ado).
Regarding B1, the negative-log Kd (pKd) result is on record as “below the threshold”.
The molecule B2 returned a pKd of 3.56.

Another test addresses T8, MPDZ_12, O75970.
T8 sequence (O75970 1857-1958, limits assumed, looked up): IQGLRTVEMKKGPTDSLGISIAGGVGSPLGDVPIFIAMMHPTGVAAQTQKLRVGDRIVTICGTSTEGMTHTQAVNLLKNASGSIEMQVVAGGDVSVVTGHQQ
Description: holdup assay. More on the design: key: below the threshold = too weak to quantify, mostly under pKd 3.1 to 4. The settings on record: plain residues with an end cap or a label only (N-terminal biotin on a linker: ado-ado).
Take B1: the negative logarithm of the Kd (pKd) result is recorded as “below the threshold”.
On to B2, for which the pKd result is “below the threshold”.

The target in the next test is T9, MPDZ_5, O75970.
T9 sequence (O75970 695-796, limits assumed, looked up): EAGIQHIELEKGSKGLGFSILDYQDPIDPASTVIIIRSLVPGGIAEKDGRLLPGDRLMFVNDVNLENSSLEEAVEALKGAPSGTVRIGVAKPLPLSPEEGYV
Description: holdup assay. To be noted: plain residues with an end cap or a label only (N-terminal biotin on a linker: ado-ado). More on the design: key: below the threshold = too weak to quantify, mostly under pKd 3.1 to 4.
B1: the pKd entry is recorded as “below the threshold”.
The same measure, in the same setting: the value for B2 was 3.56.

For another test, the target named is T10, NHERF3_1, Q5T2W1.
T10 sequence (Q5T2W1 4-100, limits assumed, looked up): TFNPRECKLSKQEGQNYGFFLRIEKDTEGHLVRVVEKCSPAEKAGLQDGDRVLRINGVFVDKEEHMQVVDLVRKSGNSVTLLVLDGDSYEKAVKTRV
Description: holdup assay. Also on record: key: below the threshold = too weak to quantify, mostly under pKd 3.1 to 4. The settings on record: plain residues with an end cap or a label only (N-terminal biotin on a linker: ado-ado).
B1: the pKd result is on record as “below the threshold”.
On the same count and under the same terms, the value for B2 was 4.47.

The target of the next test is T11, NHERF3_4, Q5T2W1.
T11 sequence (Q5T2W1 373-468, limits assumed, looked up): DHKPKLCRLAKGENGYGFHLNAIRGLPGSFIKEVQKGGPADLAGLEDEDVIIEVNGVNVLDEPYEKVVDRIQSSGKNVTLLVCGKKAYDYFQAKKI
The test can be described thus: holdup assay. The settings on record: plain residues with an end cap or a label only (N-terminal biotin on a linker: ado-ado). More on the design: key: below the threshold = too weak to quantify, mostly under pKd 3.1 to 4.
Take B1: the pKd entry is “below the threshold”.
Same read-out and setting: the value for B2 was “below the threshold”.

The next test has as its target NOS1, P29475. The test can be described thus: holdup assay. Also on record: key: below the threshold = too weak to quantify, mostly under pKd 3.1 to 4. The settings on record: plain residues with an end cap or a label only (N-terminal biotin on a linker: ado-ado).
In the case of B1, the negative-log Kd (pKd) is 3.9.
Still for that read-out and setting: then B2, with 4.12.

Another test deals with T12, PDZRN3_1, Q9UPQ7.
T12 sequence (Q9UPQ7 244-349, limits assumed, looked up): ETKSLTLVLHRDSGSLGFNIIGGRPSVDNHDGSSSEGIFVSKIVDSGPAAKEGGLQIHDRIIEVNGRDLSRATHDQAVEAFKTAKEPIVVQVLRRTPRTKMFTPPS
Description: holdup assay. More on the design: key: below the threshold = too weak to quantify, mostly under pKd 3.1 to 4. The settings on record: plain residues with an end cap or a label only (N-terminal biotin on a linker: ado-ado).
As for B1, the pKd turned out to be 3.71.
The molecule B2 registered a negative logarithm of the Kd (pKd) of 4.91.

In another test the target is PICK1, Q9NRD5. Description: holdup assay. More on the design: key: below the threshold = too weak to quantify, mostly under pKd 3.1 to 4. To be noted: plain residues with an end cap or a label only (N-terminal biotin on a linker: ado-ado).
Chain of PICK1, Q9NRD5 (Q9NRD5 17-115): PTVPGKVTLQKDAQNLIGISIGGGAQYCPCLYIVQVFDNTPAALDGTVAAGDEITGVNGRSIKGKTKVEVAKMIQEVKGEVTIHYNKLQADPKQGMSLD
Regarding B1, the negative logarithm of the Kd (pKd) result is reported as “below the threshold”.
The same measure, in the same setting: then B2, with “below the threshold”.

For another test, the target named is PTPN3, P26045. The test can be described thus: holdup assay. More on the design: key: below the threshold = too weak to quantify, mostly under pKd 3.1 to 4. The settings on record: plain residues with an end cap or a label only (N-terminal biotin on a linker: ado-ado).
Chain of PTPN3, P26045 (P26045 505-587): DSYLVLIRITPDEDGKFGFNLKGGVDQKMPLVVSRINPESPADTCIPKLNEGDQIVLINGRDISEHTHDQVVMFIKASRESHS
Turning to B1, the pKd was 4.6.
For the molecule B2, the pKd turned out to be 4.95.

The target in a further test is TJP1_2, Q07157. The test can be described thus: holdup assay. Also on record: key: below the threshold = too weak to quantify, mostly under pKd 3.1 to 4. The settings on record: plain residues with an end cap or a label only (N-terminal biotin on a linker: ado-ado).
Chain of TJP1_2, Q07157 (Q07157 181-274): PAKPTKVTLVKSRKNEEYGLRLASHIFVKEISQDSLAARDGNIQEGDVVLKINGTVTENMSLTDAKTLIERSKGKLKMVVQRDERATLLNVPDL
As to B1, the negative-log Kd (pKd) result is given as “below the threshold”.
Still for that read-out and setting: then B2, with 3.52.

In another test the target is T13, TX1BP3, O14907.
T13 sequence (O14907 10-122, limits assumed, looked up): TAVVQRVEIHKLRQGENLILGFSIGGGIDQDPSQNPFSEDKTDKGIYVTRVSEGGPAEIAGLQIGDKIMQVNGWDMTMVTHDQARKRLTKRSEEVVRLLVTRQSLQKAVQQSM
Description: holdup assay. The settings on record: plain residues with an end cap or a label only (N-terminal biotin on a linker: ado-ado). Also on record: key: below the threshold = too weak to quantify, mostly under pKd 3.1 to 4.
Take B1: the negative-log Kd (pKd) came to 4.53.
Turning to B2, the pKd stood at 4.8.
